The record followed here is paper PMC5859130.

In general, Kd refers to a measure of binding affinity in units of concentration. A high value points to a looser complex. By koff is commonly meant the first-order rate constant of dissociation. One may read the kon as the second-order rate constant of association. High values mean faster complex formation, low ones slower complex formation.

The target in assay [1] is Ixonnexin (Ixodes scapularis) (UniProt Q4PMS3). The assay is described as follows: SPR; Ixonnexin amine-coupled to a carboxymethylated dextran (CM5) chip, 726.2 RU; analytes injected 120 s at 30 µL/min, 25 °C, dissociation 600 s; global fit with the two-state (conformational change) model, Langmuir 1:1 for plasmin. On the technique in general: In SPR one partner is held on a chip, and binding of the other changes the refractive index at the surface.

The target of assay [2] is Single-chain t-PA.

In assay [1], Glu-plasminogen (natural protein) gave a Kd of 19.5 nM; a ka1 (two-state, first step) of 123000 M⁻¹ s⁻¹; a ka2 (two-state, conformational change) of 0.022 s⁻¹; a kd1 (two-state, first step) of 0.057 s⁻¹. This substance also registered a kd2 (two-state, conformational change) in assay [1] of 0.00099 s⁻¹. Also, the Km of plasmin generation (S2251) started with t-PA, with immobilized Ixonnexin (0.5 μg/ml) and increasing Glu-plasminogen in assay [2] worked out at 0.208 µM.
In assay [1], Plasmin (enzyme) showed a Kd of 197 nM, an off-rate (koff) of 0.29 s⁻¹ and an on-rate constant (kon) of 1.48e+06 M⁻¹ s⁻¹.
Turning to Single-chain t-PA (enzyme), in assay [1], the Kd turned out to be 4.67 nM; the ka1 (two-state, first step) was 413000 M⁻¹ s⁻¹; the ka2 (two-state, conformational change) was 0.0097 s⁻¹; the kd1 (two-state, first step) was found to be 0.031 s⁻¹. In assay [1], the kd2 (two-state, conformational change) was 0.0015 s⁻¹.
The corresponding values for Two-chain t-PA (enzyme) are 10.3 nM, 1.2e+06 M⁻¹ s⁻¹, 0.011 s⁻¹, 0.43 s⁻¹ and 0.0018 s⁻¹.
